{"source": "patent US20030022265", "key": {"[1]": {"molecular_target": "T1, fusion protein comprising Golgi recognition signal and transmembrane domain of yeast Golgi protein Ste13, cleavage site of yeast α-factor, and yeast invertase (UniProt P33894)", "T1 sequence": "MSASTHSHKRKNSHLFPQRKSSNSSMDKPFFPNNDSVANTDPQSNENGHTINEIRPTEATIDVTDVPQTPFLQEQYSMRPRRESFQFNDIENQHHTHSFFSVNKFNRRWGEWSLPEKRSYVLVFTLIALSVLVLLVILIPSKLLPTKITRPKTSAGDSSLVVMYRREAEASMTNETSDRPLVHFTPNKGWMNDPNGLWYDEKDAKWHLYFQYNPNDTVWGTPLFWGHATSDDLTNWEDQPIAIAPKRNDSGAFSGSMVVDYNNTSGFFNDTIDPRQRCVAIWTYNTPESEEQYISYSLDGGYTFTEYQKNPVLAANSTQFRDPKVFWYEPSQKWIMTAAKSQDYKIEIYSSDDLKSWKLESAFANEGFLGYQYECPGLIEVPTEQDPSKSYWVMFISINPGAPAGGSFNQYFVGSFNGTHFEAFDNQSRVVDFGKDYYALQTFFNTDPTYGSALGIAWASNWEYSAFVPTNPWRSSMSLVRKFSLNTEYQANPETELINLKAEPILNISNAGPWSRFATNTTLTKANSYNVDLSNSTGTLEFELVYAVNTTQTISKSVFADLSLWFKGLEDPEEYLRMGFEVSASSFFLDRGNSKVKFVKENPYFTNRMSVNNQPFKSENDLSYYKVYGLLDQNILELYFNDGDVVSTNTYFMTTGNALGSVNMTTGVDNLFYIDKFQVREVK"}, "[2]": {"test_system": "product of plasmid pADH-SteInv"}, "[3]": {"test_system": "plasmid library of pADH-SteSubInv with random substitution of the 5th and 6th amino acids of cleavage region of α-factor"}}}
{"substance": "Kex2", "values": [{"measurement": "viability of cotransformed suc2, kex2 mutant yeast on sucrose-containing plate", "setting": "[1]", "value": "transformants of test group 1 were survived both on glucose-containing and sucrose-containing plates"}, {"measurement": "viability of cotransformed suc2, kex2 mutant yeast on sucrose-containing plate", "setting": "[2]", "value": "transformants of test groups 2 to 4 were not able to grow on sucrose plates"}, {"measurement": "residues found at the randomised substrate positions in colonies grown on sucrose plates", "setting": "[3]", "value": "Various amino acids such as D, E, A, V, P, S, Q, K, R, and H were found at the 6th amino acid, while, solely R was found at the 5th amino acid"}]}
